Measurements: publication PMC10920689

Experiments:
[1] = biological target: human FcRn coupled to the FcRn retention column (UniProt P55899); assay: analytical FcRn affinity chromatography; 100 μg NIP IgG1 variant injected over a human FcRn retention column at pH 6.0, eluted by a pH gradient 6.0 to 8.8 over 110 min (20 mM MES, 140 mM NaCl pH 6.0; 20 mM Tris/HCl, 140 NaCl pH 8.8)
[2] = biological target: truncated soluble human FcRn of the FcRn binding ELISAs (hFcRn-GST or biotinylated human FcRn; the form is not told for the panel) (UniProt P55899)
[3] = biological target: truncated soluble biotinylated mouse FcRn lacking the transmembrane domain (mouse | not stated) (UniProt Q61559)
[4] = biological target: anti-NIP IgG2 WT (human); assay: SPR; IgG variants amine-coupled to CM5 chips (300 RU), serial dilutions of monomeric hFcRn-His injected; phosphate buffer pH 6.0, 25 °C, 50 µl/min; 1:1 Langmuir model
[5] = biological target: anti-NIP IgG3 WT (human); assay: as above
[6] = biological target: anti-NIP IgG1 WT (human); assay: as above
[7] = biological target: anti-NIP IgG4 REW (human); assay: as above
[8] = biological target: anti-NIP IgG2 REW (human); assay: as above
[9] = biological target: anti-NIP IgG1 LS (human); assay: as above
[10] = biological target: anti-NIP IgG1 YTE/KF (human); assay: as above
[11] = biological target: anti-NIP IgG3 R435H/REW (human); assay: as above
[12] = biological target: recombinant etanercept WT; assay: as above
[13] = biological target: anti-NIP IgG1 Q311R/M428E/N434W (REW) (human); assay: as above
[14] = biological target: anti-NIP IgG1 YTE (human); assay: as above
[15] = biological target: anti-NIP IgG4 WT (human); assay: as above
[16] = biological target: anti-NIP IgG1 KF (human); assay: as above
[17] = biological target: anti-NIP IgG1 DHS (human); assay: as above
[18] = biological target: anti-NIP human IgG1 Q311R/M428E/N434W (REW) (human); assay: SPR; Biacore 3000; NIP IgG1 variants amine-coupled (300 RU) to CM5 chips; serial dilutions of monomeric hFcRn-His injected at pH 6.0 (phosphate), 50 μl/min, 25 °C; Langmuir 1:1 model
[19] = biological target: truncated soluble human FcRn of the FcRn binding ELISAs (hFcRn-GST or biotinylated human FcRn; the form is not told for the panel) (UniProt P55899); remark: listed apart in the source

Chain of UniProt Q61559 (Q61559 22-297, chain 1 of 2): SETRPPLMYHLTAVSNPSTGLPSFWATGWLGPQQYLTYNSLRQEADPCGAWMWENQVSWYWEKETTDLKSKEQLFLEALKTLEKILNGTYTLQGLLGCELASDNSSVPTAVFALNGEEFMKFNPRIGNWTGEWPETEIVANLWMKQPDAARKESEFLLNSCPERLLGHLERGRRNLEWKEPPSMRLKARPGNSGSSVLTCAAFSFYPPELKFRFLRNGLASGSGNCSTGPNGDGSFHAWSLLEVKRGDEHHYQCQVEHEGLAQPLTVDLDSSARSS
Chain of UniProt Q61559 (P01887 21-119, chain 2 of 2, further chain): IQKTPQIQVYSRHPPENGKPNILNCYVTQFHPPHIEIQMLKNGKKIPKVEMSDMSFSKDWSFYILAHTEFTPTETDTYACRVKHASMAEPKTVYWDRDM

## anti-NIP human IgG1 wild type (antibody)
[1]
  pH of elution from the FcRn column: 6.95 pH
[2]
  plasma half-life after i.v. injection (5 mg/kg) in human FcRn transgenic mice (Tg32) preloaded with IVIg: 187 h

## anti-NIP human IgG1 Q311R/M428E/N434W (REW) (antibody)
[3]
  plasma half-life in conventional mice, against WT: 2 fold
[1]
  pH of elution from the FcRn column: 7.58 pH
[2]
  plasma half-life after i.v. injection (5 mg/kg) in human FcRn transgenic mice (Tg32) preloaded with IVIg: 341 h

## truncated soluble His6x tagged human FcRn lacking the transmembrane domain (hFcRn-His) (from UniProt P55899 24-297; P61769 21-119) (receptor)
[4]
  Kd: 388 nM
  koff: 0.0536 s⁻¹
  kon: 138000 M⁻¹ s⁻¹
[5]
  Kd: 525 nM
  koff: 0.177 s⁻¹
  kon: 337000 M⁻¹ s⁻¹
[6]
  Kd: 171 nM
  koff: 0.0825 s⁻¹
  kon: 483000 M⁻¹ s⁻¹
[7]
  Kd: 13.1 nM
  koff: 0.008 s⁻¹
  kon: 606000 M⁻¹ s⁻¹
[8]
  Kd: 13.3 nM
  koff: 0.0075 s⁻¹
  kon: 570000 M⁻¹ s⁻¹
[9]
  Kd: 13.7 nM
  koff: 0.0058 s⁻¹
  kon: 422000 M⁻¹ s⁻¹
[10]
  Kd: 3.44 nM
  koff: 0.003 s⁻¹
  kon: 871000 M⁻¹ s⁻¹
[11]
  Kd: 10.3 nM
  koff: 0.007 s⁻¹
  kon: 674000 M⁻¹ s⁻¹
[12]
  Kd: 346 nM
  koff: 0.12 s⁻¹
  kon: 348000 M⁻¹ s⁻¹
[13]
  Kd: 8.39 nM
  koff: 0.0055 s⁻¹
  kon: 653000 M⁻¹ s⁻¹
[14]
  Kd: 28.2 nM
  koff: 0.0168 s⁻¹
  kon: 594000 M⁻¹ s⁻¹
[15]
  Kd: 1280 nM
  koff: 0.123 s⁻¹
  kon: 95800 M⁻¹ s⁻¹
[16]
  Kd: 15.9 nM
  koff: 0.0122 s⁻¹
  kon: 770000 M⁻¹ s⁻¹
[17]
  Kd: 40.3 nM
  koff: 0.0304 s⁻¹
  kon: 756000 M⁻¹ s⁻¹

## truncated soluble His6x tagged human FcRn lacking the transmembrane domain (hFcRn-His), monomeric fraction (from UniProt P55899 24-297; P61769 21-119) (receptor)
[18]
  fold lower KD than WT: 20 fold

## anti-NIP human IgG2 wild type (antibody)
[19]
  plasma half-life in Tg32 mice preloaded with IVIg: 202 h

## anti-NIP human IgG2 Q311R/M428E/N434W (REW) (antibody)
[19]
  plasma half-life in Tg32 mice preloaded with IVIg: 276 h
